# Measurements published in the supplement of paper PMC9112550, “Optimization of the antimicrobial peptide Bac7 by deep mutational scanning” (BMC Biology, 2022).
# System: Escherichia coli TOP10
# Assay: shrunken log2 fold change of peptide-encoding DNA abundance (4.5 h post-induction vs induction); higher = less antimicrobial activity (less host growth inhibition)
# Settings: time post-induction: 4.5 h; library: site-saturation at positions 5, 18, 19, 20
# 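Note: peptides expressed intracellularly from a pBAD plasmid library in pooled LB shake-flask culture, induced with 0.3% L-arabinose, DNA abundance read by NGS, three biological replicates, DESeq2 with apeglm shrinkage.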
row,Sequence,shrunken log2 fold change
1,RRIRRRPPRLPRPRPRPGDMPRP,0.0846
2,RRIRRRPPRLPRPRPRPGEIPRP,0.321
3,RRIRRRPPRLPRPRPRPGGDPRP,0.48
4,RRIRRRPPRLPRPRPRPGHKPRP,0.0528
5,RRIRRRPPRLPRPRPRPGKFPRP,0.284
6,RRIRRRPPRLPRPRPRPGLSPRP,-0.0549
7,RRIRRRPPRLPRPRPRPGMEPRP,0.0306
8,RRIRRRPPRLPRPRPRPGPPPRP,1.93
9,RRIRRRPPRLPRPRPRPGQQPRP,0.119
10,RRIRRRPPRLPRPRPRPGRQPRP,0.541
11,RRIRRRPPRLPRPRPRPGSDPRP,0.421
12,RRIRRRPPRLPRPRPRPGVHPRP,-0.178
13,RRIRRRPPRLPRPRPRPGVPPRP,0.264
14,RRIRRRPPRLPRPRPRPGWLPRP,0.427
15,RRIRRRPPRLPRPRPRPGYGPRP,0.238
16,RRIRRRPPRLPRPRPRPHAIPRP,-0.042
17,RRIRRRPPRLPRPRPRPHATPRP,0.492
18,RRIRRRPPRLPRPRPRPHDGPRP,-0.0863
19,RRIRRRPPRLPRPRPRPHEHPRP,-0.153
20,RRIRRRPPRLPRPRPRPHERPRP,0.225
21,RRIRRRPPRLPRPRPRPHEWPRP,-0.00636
22,RRIRRRPPRLPRPRPRPHFAPRP,0.382
23,RRIRRRPPRLPRPRPRPHFEPRP,-0.211
24,RRIRRRPPRLPRPRPRPHFGPRP,0.111
25,RRIRRRPPRLPRPRPRPHFPPRP,0.553

row,Sequence,shrunken log2 fold change
1,RRIRRRPPRLPRPRPRPHGCPRP,0.000335
2,RRIRRRPPRLPRPRPRPHGNPRP,0.166
3,RRIRRRPPRLPRPRPRPHHMPRP,-0.217
4,RRIRRRPPRLPRPRPRPHKCPRP,-0.346
5,RRIRRRPPRLPRPRPRPHKYPRP,-0.192
6,RRIRRRPPRLPRPRPRPHNRPRP,0.0584
7,RRIRRRPPRLPRPRPRPHPPPRP,0.746
8,RRIRRRPPRLPRPRPRPHQFPRP,-0.183
9,RRIRRRPPRLPRPRPRPHQQPRP,-0.0551
10,RRIRRRPPRLPRPRPRPHSQPRP,0.0866
11,RRIRRRPPRLPRPRPRPHSYPRP,-0.187
12,RRIRRRPPRLPRPRPRPHTCPRP,0.0847
13,RRIRRRPPRLPRPRPRPHTPPRP,-0.039
14,RRIRRRPPRLPRPRPRPHTYPRP,0.573
15,RRIRRRPPRLPRPRPRPHVCPRP,0.0988
16,RRIRRRPPRLPRPRPRPHVFPRP,2.42
17,RRIRRRPPRLPRPRPRPHVRPRP,0.0936
18,RRIRRRPPRLPRPRPRPHWMPRP,0.122
19,RRIRRRPPRLPRPRPRPHWVPRP,0.0391
20,RRIRRRPPRLPRPRPRPHWWPRP,0.325
21,RRIRRRPPRLPRPRPRPIAEPRP,0.446
22,RRIRRRPPRLPRPRPRPICHPRP,0.692
23,RRIRRRPPRLPRPRPRPICLPRP,0.12
24,RRIRRRPPRLPRPRPRPICYPRP,-0.0102
25,RRIRRRPPRLPRPRPRPIFGPRP,0.338

row,Sequence,shrunken log2 fold change
1,RRIRRRPPRLPRPRPRPIFKPRP,0.196
2,RRIRRRPPRLPRPRPRPIGGPRP,0.205
3,RRIRRRPPRLPRPRPRPIGRPRP,0.00106
4,RRIRRRPPRLPRPRPRPIGSPRP,0.318
5,RRIRRRPPRLPRPRPRPIILPRP,-0.406
6,RRIRRRPPRLPRPRPRPIKIPRP,-0.0791
7,RRIRRRPPRLPRPRPRPILDPRP,0.0526
8,RRIRRRPPRLPRPRPRPILKPRP,0.333
9,RRIRRRPPRLPRPRPRPIMQPRP,-0.0408
10,RRIRRRPPRLPRPRPRPINKPRP,-0.431
11,RRIRRRPPRLPRPRPRPIQFPRP,0.153
12,RRIRRRPPRLPRPRPRPIQSPRP,0.0301
13,RRIRRRPPRLPRPRPRPIRYPRP,0.0578
14,RRIRRRPPRLPRPRPRPISCPRP,0.00341
15,RRIRRRPPRLPRPRPRPITAPRP,0.148
16,RRIRRRPPRLPRPRPRPIVCPRP,0.539
17,RRIRRRPPRLPRPRPRPIVEPRP,0.136
18,RRIRRRPPRLPRPRPRPIVQPRP,-0.0768
19,RRIRRRPPRLPRPRPRPIVSPRP,-0.221
20,RRIRRRPPRLPRPRPRPIWDPRP,0.604
21,RRIRRRPPRLPRPRPRPIYIPRP,-0.184
22,RRIRRRPPRLPRPRPRPIYNPRP,-0.246
23,RRIRRRPPRLPRPRPRPKDAPRP,0.0371
24,RRIRRRPPRLPRPRPRPKDKPRP,0.239
25,RRIRRRPPRLPRPRPRPKEYPRP,-0.0535

row,Sequence,shrunken log2 fold change
1,RRIRRRPPRLPRPRPRPKFIPRP,-0.207
2,RRIRRRPPRLPRPRPRPKHVPRP,0.19
3,RRIRRRPPRLPRPRPRPKITPRP,-0.226
4,RRIRRRPPRLPRPRPRPKLVPRP,0.485
5,RRIRRRPPRLPRPRPRPKLYPRP,0.174
6,RRIRRRPPRLPRPRPRPKMMPRP,0.296
7,RRIRRRPPRLPRPRPRPKNHPRP,-0.0297
8,RRIRRRPPRLPRPRPRPKQGPRP,-0.079
9,RRIRRRPPRLPRPRPRPKQWPRP,0.294
10,RRIRRRPPRLPRPRPRPKRRPRP,0.525
11,RRIRRRPPRLPRPRPRPKSAPRP,0.237
12,RRIRRRPPRLPRPRPRPKSRPRP,0.174
13,RRIRRRPPRLPRPRPRPKSTPRP,0.18
14,RRIRRRPPRLPRPRPRPKVQPRP,-0.0356
15,RRIRRRPPRLPRPRPRPKWCPRP,0.431
16,RRIRRRPPRLPRPRPRPKWGPRP,1.2
17,RRIRRRPPRLPRPRPRPKWSPRP,0.457
18,RRIRRRPPRLPRPRPRPKYGPRP,-0.000734
19,RRIRRRPPRLPRPRPRPLALPRP,0.396
20,RRIRRRPPRLPRPRPRPLAVPRP,0.176
21,RRIRRRPPRLPRPRPRPLCGPRP,0.0348
22,RRIRRRPPRLPRPRPRPLDVPRP,0.179
23,RRIRRRPPRLPRPRPRPLFEPRP,0.245
24,RRIRRRPPRLPRPRPRPLHGPRP,0.233
25,RRIRRRPPRLPRPRPRPLKKPRP,0.169

row,Sequence,shrunken log2 fold change
1,RRIRRRPPRLPRPRPRPLLEPRP,0.534
2,RRIRRRPPRLPRPRPRPLLHPRP,0.295
3,RRIRRRPPRLPRPRPRPLLPPRP,0.574
4,RRIRRRPPRLPRPRPRPLLWPRP,0.421
5,RRIRRRPPRLPRPRPRPLMCPRP,-0.13
6,RRIRRRPPRLPRPRPRPLMRPRP,1.07
7,RRIRRRPPRLPRPRPRPLNRPRP,-0.169
8,RRIRRRPPRLPRPRPRPLPEPRP,0.731
9,RRIRRRPPRLPRPRPRPLPPPRP,0.937
10,RRIRRRPPRLPRPRPRPLQMPRP,-0.133
11,RRIRRRPPRLPRPRPRPLREPRP,1.14
12,RRIRRRPPRLPRPRPRPLRHPRP,0.558
13,RRIRRRPPRLPRPRPRPLSFPRP,-0.0589
14,RRIRRRPPRLPRPRPRPLSWPRP,0.361
15,RRIRRRPPRLPRPRPRPLTDPRP,0.223
16,RRIRRRPPRLPRPRPRPLTNPRP,-0.16
17,RRIRRRPPRLPRPRPRPLVQPRP,0.355
18,RRIRRRPPRLPRPRPRPLVSPRP,0.153
19,RRIRRRPPRLPRPRPRPLWSPRP,0.136
20,RRIRRRPPRLPRPRPRPLYLPRP,0.926
21,RRIRRRPPRLPRPRPRPMDLPRP,0.0641
22,RRIRRRPPRLPRPRPRPMEAPRP,0.0829
23,RRIRRRPPRLPRPRPRPMETPRP,-0.12
24,RRIRRRPPRLPRPRPRPMGAPRP,0.658
25,RRIRRRPPRLPRPRPRPMGHPRP,0.129

row,Sequence,shrunken log2 fold change
1,RRIRRRPPRLPRPRPRPMGYPRP,0.0381
2,RRIRRRPPRLPRPRPRPMHYPRP,0.117
3,RRIRRRPPRLPRPRPRPMKGPRP,0.144
4,RRIRRRPPRLPRPRPRPMKMPRP,0.18
5,RRIRRRPPRLPRPRPRPMLFPRP,0.263
6,RRIRRRPPRLPRPRPRPMLRPRP,0.854
7,RRIRRRPPRLPRPRPRPMLTPRP,0.211
8,RRIRRRPPRLPRPRPRPMLYPRP,-0.0417
9,RRIRRRPPRLPRPRPRPMNHPRP,-0.281
10,RRIRRRPPRLPRPRPRPMNIPRP,-0.267
11,RRIRRRPPRLPRPRPRPMNWPRP,0.291
12,RRIRRRPPRLPRPRPRPMPMPRP,0.0681
13,RRIRRRPPRLPRPRPRPMPWPRP,0.119
14,RRIRRRPPRLPRPRPRPMQEPRP,-0.206
15,RRIRRRPPRLPRPRPRPMQFPRP,-0.058
16,RRIRRRPPRLPRPRPRPMQNPRP,0.362
17,RRIRRRPPRLPRPRPRPMRAPRP,0.905
18,RRIRRRPPRLPRPRPRPMWMPRP,0.0619
19,RRIRRRPPRLPRPRPRPNADPRP,0.579
20,RRIRRRPPRLPRPRPRPNAGPRP,0.0188
21,RRIRRRPPRLPRPRPRPNATPRP,0.703
22,RRIRRRPPRLPRPRPRPNCSPRP,0.198
23,RRIRRRPPRLPRPRPRPNDNPRP,-0.301
24,RRIRRRPPRLPRPRPRPNFCPRP,0.171
25,RRIRRRPPRLPRPRPRPNFEPRP,0.413
